IC50 data for 1 substance are collected here from patent publication US20160115200A1, “New Use for JNK Inhibitor Molecules for Treatment of Various Diseases” (XIGEN INFLAMMATION LTD., priority 2013, published 2016).

Common to all, as to assay: kinase inhibition
Experiment [1] concerns the target His-JNK3 (ref 14-501, Upstate) (UniProt P53779).
For experiment [2], the target named is His-JNK1 (ref 14-327, Upstate) (UniProt P45983).
The target of experiment [3] is His-JNK2 (ref 14-329, Upstate) (UniProt P45984).

His-JNK3 (ref 14-501, Upstate), sequence (P53779 other isoform, or with tags, fused parts or gaps): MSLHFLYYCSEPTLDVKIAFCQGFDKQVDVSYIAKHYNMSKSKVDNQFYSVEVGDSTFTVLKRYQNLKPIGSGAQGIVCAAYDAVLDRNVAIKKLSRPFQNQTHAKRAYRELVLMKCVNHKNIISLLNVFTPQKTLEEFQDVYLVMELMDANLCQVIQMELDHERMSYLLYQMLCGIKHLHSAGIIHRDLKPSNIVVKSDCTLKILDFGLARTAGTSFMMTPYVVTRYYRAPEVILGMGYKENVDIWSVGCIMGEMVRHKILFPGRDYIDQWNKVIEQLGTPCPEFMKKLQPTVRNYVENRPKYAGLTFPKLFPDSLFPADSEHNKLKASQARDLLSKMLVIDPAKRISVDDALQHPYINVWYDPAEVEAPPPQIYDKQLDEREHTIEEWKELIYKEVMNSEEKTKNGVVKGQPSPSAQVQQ
His-JNK1 (ref 14-327, Upstate), sequence (P45983 other isoform, or with tags, fused parts or gaps): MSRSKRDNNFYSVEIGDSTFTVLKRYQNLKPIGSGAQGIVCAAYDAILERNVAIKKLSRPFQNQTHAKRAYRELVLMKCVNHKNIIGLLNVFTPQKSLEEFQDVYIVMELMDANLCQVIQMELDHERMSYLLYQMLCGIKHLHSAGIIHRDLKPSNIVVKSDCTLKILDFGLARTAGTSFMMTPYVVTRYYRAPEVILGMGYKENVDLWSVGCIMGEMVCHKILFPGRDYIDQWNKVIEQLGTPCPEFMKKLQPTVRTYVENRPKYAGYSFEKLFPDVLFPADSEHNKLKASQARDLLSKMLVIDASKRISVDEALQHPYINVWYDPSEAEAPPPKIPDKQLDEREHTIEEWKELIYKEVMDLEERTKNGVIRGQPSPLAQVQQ

D-TAT-IB1: the IC50 in experiment [1] is 1290 nM; in experiment [2], 24400 nM; in experiment [3], 802 nM.
